Consider 17 molecules from patent US20190202921A1 (Five Prime, published 2019).

Positions count from the first letter of the chain named. Numbers in names are those of the source.

The chains are these.
T1: rat PD-1 (rat, UniProt D3ZIN8 25-287)
T1 sequence: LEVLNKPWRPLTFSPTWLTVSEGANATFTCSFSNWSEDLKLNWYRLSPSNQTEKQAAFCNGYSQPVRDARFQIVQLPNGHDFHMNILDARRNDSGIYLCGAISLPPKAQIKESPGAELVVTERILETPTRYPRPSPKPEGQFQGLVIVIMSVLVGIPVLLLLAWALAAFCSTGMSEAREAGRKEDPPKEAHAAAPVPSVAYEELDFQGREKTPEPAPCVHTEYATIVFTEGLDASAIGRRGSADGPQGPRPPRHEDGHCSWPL

T2: mouse CSF1R ECD (mouse, UniProt P09581 20-515)
T2 construct: extracellular domain
T2 sequence (looked up): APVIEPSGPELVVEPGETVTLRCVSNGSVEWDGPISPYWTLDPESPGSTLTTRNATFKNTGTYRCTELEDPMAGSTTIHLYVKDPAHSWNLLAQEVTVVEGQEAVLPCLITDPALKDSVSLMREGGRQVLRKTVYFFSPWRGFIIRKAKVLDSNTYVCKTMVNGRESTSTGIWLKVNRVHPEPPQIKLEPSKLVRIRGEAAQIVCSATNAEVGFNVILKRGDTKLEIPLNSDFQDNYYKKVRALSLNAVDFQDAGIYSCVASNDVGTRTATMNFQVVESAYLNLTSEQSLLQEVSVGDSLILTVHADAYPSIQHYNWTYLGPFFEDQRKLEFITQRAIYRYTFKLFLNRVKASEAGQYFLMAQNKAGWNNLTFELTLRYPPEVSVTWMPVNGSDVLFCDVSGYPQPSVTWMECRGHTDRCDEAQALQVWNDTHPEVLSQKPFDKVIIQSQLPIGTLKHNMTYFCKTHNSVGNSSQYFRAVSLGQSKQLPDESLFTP

T3: cynomolgus monkey CSF1R ECD (cynomolgus monkey, UniProt P07333 20-505 (human entry))
T3 construct: also called cynoCSF1R ECD
T3 chain: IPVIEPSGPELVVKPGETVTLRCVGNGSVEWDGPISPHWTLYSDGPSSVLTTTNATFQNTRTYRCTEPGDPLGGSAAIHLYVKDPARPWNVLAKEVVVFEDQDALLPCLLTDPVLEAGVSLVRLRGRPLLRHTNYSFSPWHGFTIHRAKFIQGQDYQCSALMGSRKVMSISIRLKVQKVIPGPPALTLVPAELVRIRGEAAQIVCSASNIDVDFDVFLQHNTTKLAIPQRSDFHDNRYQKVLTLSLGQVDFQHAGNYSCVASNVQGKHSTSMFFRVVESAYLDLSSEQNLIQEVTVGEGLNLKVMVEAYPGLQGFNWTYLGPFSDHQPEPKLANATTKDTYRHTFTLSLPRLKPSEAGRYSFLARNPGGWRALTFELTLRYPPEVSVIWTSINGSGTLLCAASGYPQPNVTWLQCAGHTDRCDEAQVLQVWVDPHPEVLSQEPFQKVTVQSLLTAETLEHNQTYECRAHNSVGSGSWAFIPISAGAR

B1: nivolumab (antibody, human IgG4 S228P, kappa, V domains shown)
VH: QVQLVESGGGVVQPGRSLRLDCKASGITFSNSGMHWVRQAPGKGLEWVAVIWYDGSKRYYADSVKGRFTISRDNSKNTLFLQMNSLRAEDTAVYYCATNDDYWGQGTLVTVSS
VL: EIVLTQSPATLSLSPGERATLSCRASQSVSSYLAWYQQKPGQAPRLLIYDASNRATGIPARFSGSGSGTDFTLTISSLEPEDFAVYYCQQSSNWPRTFGQGTKVEIKR
notes: Fully human IgG4 (S228P); also called Opdivo; 5C4
B2: huAb2 (antibody, human IgG4 S228P, kappa)
heavy: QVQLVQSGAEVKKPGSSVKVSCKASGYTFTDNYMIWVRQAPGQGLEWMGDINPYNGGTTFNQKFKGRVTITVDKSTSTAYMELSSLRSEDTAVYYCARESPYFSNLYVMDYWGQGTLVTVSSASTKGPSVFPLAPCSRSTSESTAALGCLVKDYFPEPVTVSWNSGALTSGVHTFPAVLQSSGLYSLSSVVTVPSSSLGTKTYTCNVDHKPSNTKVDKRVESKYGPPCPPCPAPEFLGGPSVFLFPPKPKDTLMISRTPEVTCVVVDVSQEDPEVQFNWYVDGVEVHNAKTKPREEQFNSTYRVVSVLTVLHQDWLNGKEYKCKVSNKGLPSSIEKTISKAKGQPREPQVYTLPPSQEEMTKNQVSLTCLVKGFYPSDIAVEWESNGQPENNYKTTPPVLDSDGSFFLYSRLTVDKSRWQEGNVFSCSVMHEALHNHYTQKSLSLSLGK
light: EIVLTQSPATLSLSPGERATLSCKASQSVDYDGDNYMNWYQQKPGQAPRLLIYAASNLESGIPARFSGSGSGTDFTLTISSLEPEDFAVYYCHLSNEDLSTFGGGTKVEIKRTVAAPSVFIFPPSDEQLKSGTASVVCLLNNFYPREAKVQWKVDNALQSGNSQESVTEQDSKDSTYSLSSTLTLSKADYEKHKVYACEVTHQGLSSPVTKSFNRGEC
notes: also called huAb 0301-L0H1; h0301-H1 / h0301-L0
B3: huAb3 (antibody, human IgG4 S228P, kappa)
heavy: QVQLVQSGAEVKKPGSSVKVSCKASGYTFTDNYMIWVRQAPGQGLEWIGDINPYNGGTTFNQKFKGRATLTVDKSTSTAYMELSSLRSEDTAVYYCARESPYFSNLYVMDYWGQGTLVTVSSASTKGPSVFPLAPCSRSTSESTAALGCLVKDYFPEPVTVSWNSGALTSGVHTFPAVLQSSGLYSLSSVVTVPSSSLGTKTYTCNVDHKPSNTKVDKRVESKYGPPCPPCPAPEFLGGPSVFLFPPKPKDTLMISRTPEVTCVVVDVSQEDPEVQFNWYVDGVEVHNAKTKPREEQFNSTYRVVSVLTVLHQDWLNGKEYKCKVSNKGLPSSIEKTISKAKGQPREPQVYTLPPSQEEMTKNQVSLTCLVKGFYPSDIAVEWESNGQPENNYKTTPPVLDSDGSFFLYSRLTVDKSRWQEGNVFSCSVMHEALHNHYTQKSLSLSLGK
light: B2 light
notes: also called huAb 0301-L0H2; h0301-H2 / h0301-L0
B4: huAb5 (antibody, human IgG4 S228P, kappa)
heavy: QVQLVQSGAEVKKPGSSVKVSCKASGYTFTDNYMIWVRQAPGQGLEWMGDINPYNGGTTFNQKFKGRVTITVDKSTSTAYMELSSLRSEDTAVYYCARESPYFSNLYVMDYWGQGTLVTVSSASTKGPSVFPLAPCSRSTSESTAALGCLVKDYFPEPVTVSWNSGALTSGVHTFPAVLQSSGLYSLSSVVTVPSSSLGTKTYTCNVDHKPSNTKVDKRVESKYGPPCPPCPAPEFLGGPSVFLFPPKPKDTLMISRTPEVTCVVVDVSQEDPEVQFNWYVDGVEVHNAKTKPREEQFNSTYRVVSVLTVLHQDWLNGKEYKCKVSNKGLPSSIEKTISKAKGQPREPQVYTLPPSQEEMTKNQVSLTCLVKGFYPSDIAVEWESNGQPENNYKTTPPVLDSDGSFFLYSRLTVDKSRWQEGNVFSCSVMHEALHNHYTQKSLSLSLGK
light: B2 light with E1N
notes: also called huAb 0301-L1H1; h0301-H1 / h0301-L1
B5: huAb1 (antibody, human IgG4 S228P, kappa)
heavy: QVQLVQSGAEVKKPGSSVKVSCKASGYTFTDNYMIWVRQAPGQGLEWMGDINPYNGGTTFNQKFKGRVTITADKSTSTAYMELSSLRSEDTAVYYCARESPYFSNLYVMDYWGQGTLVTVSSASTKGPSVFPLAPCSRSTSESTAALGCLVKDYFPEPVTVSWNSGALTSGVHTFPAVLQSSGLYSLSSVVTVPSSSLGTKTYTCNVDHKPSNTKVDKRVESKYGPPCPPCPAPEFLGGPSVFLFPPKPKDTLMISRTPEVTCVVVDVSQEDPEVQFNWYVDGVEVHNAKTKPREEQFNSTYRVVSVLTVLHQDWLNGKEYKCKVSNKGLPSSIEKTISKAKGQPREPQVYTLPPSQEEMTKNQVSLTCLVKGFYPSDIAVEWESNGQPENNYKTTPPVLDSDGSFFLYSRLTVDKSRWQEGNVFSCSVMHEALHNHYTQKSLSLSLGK
light: B2 light
notes: also called huAb 0301-L0H0; FPA008
B6: huAb4 (antibody, human IgG4 S228P, kappa)
heavy: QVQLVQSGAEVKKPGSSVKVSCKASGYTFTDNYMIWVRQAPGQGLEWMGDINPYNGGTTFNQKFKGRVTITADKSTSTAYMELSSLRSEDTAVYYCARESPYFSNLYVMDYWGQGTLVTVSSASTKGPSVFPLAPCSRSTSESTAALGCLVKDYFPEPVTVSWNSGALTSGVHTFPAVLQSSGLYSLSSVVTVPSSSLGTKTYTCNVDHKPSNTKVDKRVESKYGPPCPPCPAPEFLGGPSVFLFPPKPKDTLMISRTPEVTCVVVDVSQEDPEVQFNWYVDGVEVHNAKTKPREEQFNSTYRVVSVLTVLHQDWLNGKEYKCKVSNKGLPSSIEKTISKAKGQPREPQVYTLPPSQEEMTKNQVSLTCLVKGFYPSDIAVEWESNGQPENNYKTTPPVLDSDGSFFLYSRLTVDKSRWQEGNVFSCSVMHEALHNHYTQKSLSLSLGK
light: B2 light with E1N
notes: also called huAb 0301-L1H0; h0301-H0 / h0301-L1
B7: huAb6 (antibody, human IgG4 S228P, kappa)
heavy: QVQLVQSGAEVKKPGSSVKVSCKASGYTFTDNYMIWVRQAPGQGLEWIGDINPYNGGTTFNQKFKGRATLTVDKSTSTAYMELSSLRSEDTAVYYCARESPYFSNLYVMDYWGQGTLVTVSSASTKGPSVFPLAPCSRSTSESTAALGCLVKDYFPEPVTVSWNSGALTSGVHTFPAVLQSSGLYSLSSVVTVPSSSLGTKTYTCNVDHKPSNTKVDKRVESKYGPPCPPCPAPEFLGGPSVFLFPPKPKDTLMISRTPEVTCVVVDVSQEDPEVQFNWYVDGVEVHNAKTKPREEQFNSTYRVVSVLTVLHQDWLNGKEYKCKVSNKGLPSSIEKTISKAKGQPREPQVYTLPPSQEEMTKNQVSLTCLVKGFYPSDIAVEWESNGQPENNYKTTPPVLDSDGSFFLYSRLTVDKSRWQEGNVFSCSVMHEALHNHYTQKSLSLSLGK
light: B2 light with E1N
notes: also called huAb 0301-L1H2; h0301-H2 / h0301-L1
B8: huAb8 (antibody, human IgG4 S228P, kappa, V domains shown)
VH: QVQLVQSGAEVKKPGSSVKVSCKASGYTFSDFNIHWVRQAPGQGLEWMGYINPYTDVTVYNEKFKGRVTITSDKSTSTAYMELSSLRSEDTAVYYCASYFDGTFDYALDYWGQGTLVTVSS
VL: EIVLTQSPATLSLSPGERATLSCRASESVDNYGLSFMNWYQQKPGQAPRLLIYTASNLESGIPARFSGSGSRTDFTLTISSLEPEDFAVYYCQQSKELPWTFGQGTKVEIKR
notes: also called huAb 0302-L1H1; h0302-H1 / h0302-L1
B9: huAb13 (antibody, human IgG4 S228P, kappa, V domains shown)
VH: QVQLVQSGAEVKKPGSSVKVSCKASGYIFTDYNMHWVRQAPGQGLEWMGEINPNNGVVVYNQKFKGRVTITVDKSTSTAYMELSSLRSEDTAVYYCTRALYHSNFGWYFDSWGQGTLVTVSS
VL: B8 VL with R24K, E27Q, N31Y, Y32D, L34D, F36H, R72G, S95G, K96N, L98D
notes: also called huAb 0311-L0H1; h0311-H1 / h0311-L0
B10: huAb7 (antibody, human IgG4 S228P, kappa, V domains shown)
VH: B8 VH
VL: B8 VL with R72G
notes: also called huAb 0302-L0H1; h0302-H1 / h0302-L0
B11: huAb12 (antibody, human IgG4 S228P, kappa, V domains shown)
VH: B8 VH with M48I, V68A, I70L
VL: B8 VL with L4V, Y40F
notes: also called huAb 0302-L2H2; h0302-H2 / h0302-L2
B12: huAb9 (antibody, human IgG4 S228P, kappa, V domains shown)
VH: B8 VH
VL: B8 VL with L4V, Y40F
notes: also called huAb 0302-L2H1; h0302-H1 / h0302-L2
B13: huAb16 (antibody, human IgG4 S228P, kappa, V domains shown)
VH: B9 VH with R67T, V68T, I70L
VL: DIVLTQSPATLSLSPGERATLSCKASQSVDYDGDSHMNWYQQKPGQAPRLLIYTASNLESGIPARFSGSGSGADFTLTISSLEPEDFAVYYCQQGNEDPWTFGQGTKVEIKR
notes: also called huAb 0311-L1H2; h0311-H2 / h0311-L1
B14: huAb10 (antibody, human IgG4 S228P, kappa, V domains shown)
VH: B8 VH with M48I, V68A, I70L
VL: B8 VL with R72G
notes: also called huAb 0302-L0H2; h0302-H2 / h0302-L0
B15: huAb14 (antibody, human IgG4 S228P, kappa, V domains shown)
VH: B9 VH
VL: B13 VL
notes: also called huAb 0311-L1H1; h0311-H1 / h0311-L1
B16: huAb15 (antibody, human IgG4 S228P, kappa, V domains shown)
VH: B9 VH with R67T, V68T, I70L
VL: B13 VL with D1E, A73T
notes: also called huAb 0311-L0H2; h0311-H2 / h0311-L0
B17: huAb11 (antibody, human IgG4 S228P, kappa, V domains shown)
VH: B8 VH with M48I, V68A, I70L
VL: B8 VL
notes: also called huAb 0302-L1H2; h0302-H2 / h0302-L1

One assay addresses T1, rat PD-1. Nature of the assay: FACS analysis. (Flow cytometry measures light scatter and fluorescence of single cells or particles in a stream.)
For B1, the binding result is “no binding”.

A further assay deals with T2, mouse CSF1R ECD. Nature of the assay: binding test as described in WO 2011/140249.
For the molecule B2, the binding result is recorded as “no binding”.

As for B3, the binding result is “no binding”.

Consider B4, for which the binding result is recorded as “no binding”.

With B5, the binding result is reported as “no binding”.

Regarding B6, the binding result was “no binding”.

In the case of B7, the binding result was “no binding”.

Regarding B8, the binding result is “no binding”.

Regarding B9, the binding result is listed as “no binding”.

Consider B10, for which the binding result is recorded as “no binding”.

Regarding B11, the binding result is given as “no binding”.

Consider B12, for which the binding result is given as “no binding”.

Consider B13, for which the binding result was “no binding”.

In the case of B14, the binding result was “no binding”.

B15: the binding result was “no binding”.

In the case of B16, the binding result is given as “no binding”.

As to B17, the binding result is “no binding”.

The next assay concerns the target T3, cynomolgus monkey CSF1R ECD. Nature of the assay: binding test as described in WO 2011/140249.
In the case of B2, the binding result was “binds”.

Turning to B3, the binding result is given as “binds”.

As to B4, the binding result is recorded as “binds”.

B5: the binding result is on record as “binds”.

Take B6: the binding result is given as “binds”.

Take B7: the binding result is reported as “binds”.

With B8, the binding result was “binds”.

For the molecule B9, the binding result is recorded as “binds”.

As to B10, the binding result is reported as “binds”.

On to B11, for which the binding result was “binds”.

Take B12: the binding result is “binds”.

With B13, the binding result is “binds”.

As to B14, the binding result was “binds”.

Consider B15, for which the binding result is reported as “binds”.

As to B16, the binding result is recorded as “binds”.

Take B17: the binding result was “binds”.
